# Measurements published in IntAct's records for PubMed 16083881.
# B1: Serine/threonine-protein phosphatase 5 (Mus musculus), Q60676 (parent)
# chain: MAMAEGERTECAETPRDEPPADGTLKRAEELKTQANDYFKAKDYENAIKFYSQAIELNPGNAIYYGNRSLAYLRTECYGYALGDATRAIELDKKYIKGYYRRAASNMALGKFRAALRDYETVVKVKPNDKDAKMKYQECSKIVKQKAFERAIAGDEHRRSVVDSLDIESMTIEDEYSGPKLEDGKVTITFMKDLMQWYKDQKKLHRKCAYQILVQVKEVLCKLSTLVETTLKETEKITVCGDTHGQFYDLLNIFELNGLPSETNPYIFNGDFVDRGSFSVEVILTLFGFKLLYPDHFHLLRGNHETDNMNQIYGFEGEVKAKYTAQMYELFSEVFEWLPLAQCINGKVLIMHGGLFSEDGVTLDDIRKIERNRQPPDSGPMCDLLWSDPQPQNGRSVSKRGVSCQFGPDVTKAFLEENQLDYIIRSHEVKAEGYEVAHGGRCVTVFSAPNYCDQMGNKASYIHLQGSDLRPQFHQFTAVPHPNVKPMAYANTLLQLGMM
# partner: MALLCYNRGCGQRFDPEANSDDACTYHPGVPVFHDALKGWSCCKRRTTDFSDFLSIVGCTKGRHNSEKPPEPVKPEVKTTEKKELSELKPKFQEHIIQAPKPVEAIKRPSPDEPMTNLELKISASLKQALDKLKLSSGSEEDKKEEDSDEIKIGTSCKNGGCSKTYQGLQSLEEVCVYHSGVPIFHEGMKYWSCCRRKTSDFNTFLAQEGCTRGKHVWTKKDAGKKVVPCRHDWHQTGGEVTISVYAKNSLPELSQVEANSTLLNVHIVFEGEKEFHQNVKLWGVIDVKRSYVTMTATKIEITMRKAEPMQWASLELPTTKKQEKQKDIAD
# Variants of: B1
# Conditions: with chrd1_mouse Chordc1, Q9D1P4
row,effect of a mutation on the interaction,Variant
1,disrupting interaction,K32A

# Variants of: B1
# Conditions: with chrd1_mouse Chordc1, Q9D1P4
# Remark: another data set of the same source
row,effect of a mutation on the interaction,Variant
1,disrupting interaction,R101A
